Literature values in patent US20210077665A1, “METHODS AND DEVICES FOR LYMPHATIC TARGETING” (priority 2005, published 2021).

Key:
[1] = at 44 h; pleural injection

IC50 (H460 lung cancer cells) [nM]	Molecule	uptake in mediastinal nodes [1] [%]
–	111In-avidin: 111In labeled avidin injected in the pleural space (literature)	3.3
5	CC(=O)O[C@H]1C(=O)[C@@]2(C)[C@H]([C@H](OC(=O)c3ccccc3)[C@]3(O)C[C@H](OC(=O)[C@H](O)[C@@H](NC(=O)c4ccccc4)c4ccccc4)C(C)=C1C3(C)C)[C@]1(OC(C)=O)CO[C@@H]1C[C@@H]2O [Paclitaxel, paclitaxel]	–
